Among the data in patent publication US20230002481A1 (Chugai, published 2023) are Kd, koff and kon values, retold here.

The experiment deals with T1, recombinant cyno C1r2s2 His/Flag tetramer (cynomolgus monkey, limits assumed).
T1 construct: Heterotetramer of two C1r-His and two C1s-Flag chains, co-expressed in FreeStyle293-F cells; also called cyno C1r2s2s
T1 chain 1: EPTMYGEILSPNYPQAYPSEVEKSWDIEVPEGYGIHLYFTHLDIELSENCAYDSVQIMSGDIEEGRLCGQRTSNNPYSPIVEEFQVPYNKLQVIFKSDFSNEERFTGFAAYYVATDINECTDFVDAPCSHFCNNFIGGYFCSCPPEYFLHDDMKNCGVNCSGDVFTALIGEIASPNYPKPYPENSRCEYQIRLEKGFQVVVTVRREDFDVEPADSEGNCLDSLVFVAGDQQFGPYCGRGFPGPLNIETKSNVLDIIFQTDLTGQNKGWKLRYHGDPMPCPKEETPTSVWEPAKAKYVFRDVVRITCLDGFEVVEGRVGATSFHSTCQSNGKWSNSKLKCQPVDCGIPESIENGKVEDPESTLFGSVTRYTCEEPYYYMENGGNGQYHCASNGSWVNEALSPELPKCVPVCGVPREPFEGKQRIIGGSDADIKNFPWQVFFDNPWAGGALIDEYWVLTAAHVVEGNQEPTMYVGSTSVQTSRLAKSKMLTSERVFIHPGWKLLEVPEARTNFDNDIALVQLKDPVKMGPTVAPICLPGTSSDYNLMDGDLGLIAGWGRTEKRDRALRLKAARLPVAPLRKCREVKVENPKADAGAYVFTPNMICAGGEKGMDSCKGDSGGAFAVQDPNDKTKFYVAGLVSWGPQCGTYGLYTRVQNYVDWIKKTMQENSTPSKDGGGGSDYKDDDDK
T1 chain 2: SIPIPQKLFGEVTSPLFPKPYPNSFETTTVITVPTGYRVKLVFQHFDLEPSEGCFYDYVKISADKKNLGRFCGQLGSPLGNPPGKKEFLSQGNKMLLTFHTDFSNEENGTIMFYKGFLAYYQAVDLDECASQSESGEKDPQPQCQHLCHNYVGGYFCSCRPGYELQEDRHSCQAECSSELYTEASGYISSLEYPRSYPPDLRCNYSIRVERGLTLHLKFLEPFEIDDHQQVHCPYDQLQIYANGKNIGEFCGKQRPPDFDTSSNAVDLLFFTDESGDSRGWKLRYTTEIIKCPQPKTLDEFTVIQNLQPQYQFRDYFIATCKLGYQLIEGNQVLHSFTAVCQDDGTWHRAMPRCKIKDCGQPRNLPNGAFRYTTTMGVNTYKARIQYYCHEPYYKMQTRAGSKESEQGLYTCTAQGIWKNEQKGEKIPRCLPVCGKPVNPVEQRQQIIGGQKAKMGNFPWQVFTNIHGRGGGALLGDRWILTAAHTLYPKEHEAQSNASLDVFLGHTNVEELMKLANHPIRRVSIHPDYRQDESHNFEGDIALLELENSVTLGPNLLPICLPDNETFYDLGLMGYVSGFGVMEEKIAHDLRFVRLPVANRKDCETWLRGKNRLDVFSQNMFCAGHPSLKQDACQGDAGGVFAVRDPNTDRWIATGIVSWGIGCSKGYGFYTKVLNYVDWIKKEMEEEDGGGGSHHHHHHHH
Description: SPR (Biacore), antibody captured on ProA/G, antigen as analyte, 37 C, pH5.8, 1.2 mM CaCl2; pH 5.8. The procedure: The kinetic parameters of anti-C1s antibodies against recombinant human C1s (as described in PCT/JP2018/042054), human C1r2s2, and cyno C1r2s2 His/Flag (also referred as cyno C1r2s2 in the Table and Figures) were assessed at pH7.4 and pH5.8, at 37 degrees C. using BIACORE (registered trademark) T200 instrument (GE Healthcare) or BIACORE 4000 (GE Healthcare). ProAG (Pierce) was immobilized onto a CM4 sensorchip using amine coupling kit (GE Healthcare) according to the recommended settings by GE Healthcare. Antibodies and analytes were diluted into the respective running buffers, ACES pH7.4 and pH5.8 (20 mM ACES, 150 mM NaCl, 1.2 mM CaCl₂, 1 mg/ml BSA, 1 mg/ml CMD, 0.05% Tween 20, 0.005 w/v % NaN₃). Each antibody was captured onto the sensor surface by ProA/G. Antibody capture levels were typically 100-200 resonance units (RU). Then, recombinant C1s was injected at concentrations of 25 and 50 nM followed by dissociation at pH7.4 and pH5.8. The surface was regenerated using 10 mM Glycine-HCl, pH1.5. Kinetic parameters at neutral pH conditions and acidic conditions were determined by fitting the sensorgrams with 1:1 binding model using BIACORE (registered trademark) T200 Evaluation software, version 2.0 (GE Healthcare) or BIACORE 4000 Evaluation software. The dissociation rate at pH5.8 (after dissociation at pH7.4, indicated as pH5.8* in TABLE 2) was determined by processing and fitting data using Scrubber 2.0 (BioLogic Software) curve fitting software. The association rate (ka), dissociation rate (kd), binding affinity (KD) at pH7.4 and pH5.8 condition, and dissociation rate (kd) at pH5.8* condition of the antibodies are listed in TABLE 2. Some kinetic parameters of COS0098pHv1 in acidic condition were not correctly calculated because of its weak binding response.
Also, to observe the cross-reactivity of anti-C1s antibodies against human C1r2s2 and cyno C1r2s2 (cyno C1r2s2 His/Flag), BIACORE (registered trademark) kinetics analysis was performed.
A general note: SPR reads the build-up and loss of mass on a sensor chip optically.

B1: COS0098bb (antibody, V domains shown)
VH: QSVEESGGRLVTPGTPLTLTCTVSGFSLTKYTVSWVRQAPGKGLEWIGIINTGGSAYYATWAKGRFTFSKTSTTVDLQITSPTTEDTATYFCARGNGDTDYTNLWGPGTLVTVSS
VL: QVLTQTPSSVSEPVGGTVTINCQASENIYSALAWYQQKPGQPPKLLIYGASNLESGVPSRFKGSGSGTQFTLTISDLECADAATYYCQQYYFTSSTFGGGTKVEIK
notes: Anti-C1s rabbit antibody, parent of COS0098pHv1; the antibody was captured by ProA/G; also called anti-C1s antibody COS0098bb
The term Kd denotes the concentration at which binding is half-saturated. One may read the koff as the rate constant with which the complex falls apart. As usually defined, the kon is the second-order rate constant of association. As for B1, the Kd came to 894 pM, the koff amounted to 0.00105 s⁻¹ and the kon turned out to be 1.17e+06 M⁻¹ s⁻¹.
